Publication PMC2270323, “Phosphorylation-Independent Regulation of the Diguanylate Cyclase WspR” (PLoS Biology, 2008)
Several values for one entry are separate records, joined by “and”; a condition that tells them apart may be missing. Equal entries are not always repeated.

Columns and labels:
[1] = target: WspR from P. syringae DC3000 (full length) (P. syringae DC3000); test: crystal structure; unpublished data: crystal structure of the WspR homolog from P. syringae
[2] = target: the molecule itself; test: SEC; c-di-GMP-bound protein as purified, 0.24 mM; Superdex 200 10/300; 25 mM Tris-Cl pH 7.5, 100 mM NaCl, 1 mM DTT
[3] = target: the molecule itself; test: crystal structure; c-di-GMP-bound full-length WspR, 2.4 Å, space group C2, two molecules in the asymmetric unit; hanging drop, 0.1 M Tris-Cl pH 8.0, 2.9 M NaCl, 15% xylitol, 20 °C
[4] = target: the molecule itself; test: SEC; nucleotide-free protein (wild type: PDE-treated, PDE and nucleotide removed; GGAAF as purified), 0.08-0.24 mM; Superdex 200 10/300; 25 mM Tris-Cl pH 7.5, 100 mM NaCl, 1 mM DTT; distribution depends on protein concentration
[5] = target: the molecule itself; test: SEC-MALS; nucleotide-free mutants as purified, 4 mg/ml (approximately 0.1 mM); Shodex KW-803; 25 mM Tris-HCl pH 7.5, 100 mM NaCl, 1 mM DTT
[6] = target: the molecule itself; test: SEC-MALS; stalk mutants as purified (c-di-GMP bound), approximately 0.1 mM; Shodex KW-803; 25 mM Tris-Cl pH 7.5, 100 mM NaCl, 1 mM DTT
[7] = target: the molecule itself; test: SEC; unpublished data: lysates of E. coli expressing WspR^R242A or WspR^GGAAF, gel filtration

For “WspR from P. syringae DC3000 (full length) (enzyme)”, the stoichiometry N [1] was 4.

B1: WspR from P. aeruginosa, wild type (full length) (enzyme)
chain: MHNPHESKTDLGAPLDGAVMVLLVDDQAMIGEAVRRSLASEAGIDFHFCSDPQQAVAVANQIKPTVILQDLVMPGVDGLTLLAAYRGNPATRDIPIIVLSTKEEPTVKSAAFAAGANDYLVKLPDAIELVARIRYHSRSYIALQQRDEAYRALRESQQQLLETNLVLQRLMNSDGLTGLSNRRHFDEYLEMEWRRSLREQSQLSLLMIDVDYFKSYNDTFGHVAGDEALRQVAGAIREGCSRSSDLAARYGGEEFAMVLPGTSPGGARLLAEKVRRTVESLQISHDQPRPGSHLTVSIGVSTLVPGGGGQTFRVLIEMADQALYQAKNNGRNQVGLMEQPVPPAPAG
notes: the nucleotide-free form was made by treatment with the PDE SadR/RocR and repurification; The nucleotide state is told in each assay's format; also called WspR^wt; PA3702; source: E. coli BL21(DE3), purified (NiNTA, SEC); also E. coli BL21, in lysate; not shown: His6, C-terminal, kept
With B1 the “stoichiometry N” value [2] was 2 and the “stoichiometry N” value [3] was 4.

B2: WspR^GGAAF (catalytically dead mutant of P. aeruginosa WspR) (enzyme)
chain: MHNPHESKTDLGAPLDGAVMVLLVDDQAMIGEAVRRSLASEAGIDFHFCSDPQQAVAVANQIKPTVILQDLVMPGVDGLTLLAAYRGNPATRDIPIIVLSTKEEPTVKSAAFAAGANDYLVKLPDAIELVARIRYHSRSYIALQQRDEAYRALRESQQQLLETNLVLQRLMNSDGLTGLSNRRHFDEYLEMEWRRSLREQSQLSLLMIDVDYFKSYNDTFGHVAGDEALRQVAGAIREGCSRSSDLAARYGGAAFAMVLPGTSPGGARLLAEKVRRTVESLQISHDQPRPGSHLTVSIGVSTLVPGGGGQTFRVLIEMADQALYQAKNNGRNQVGLMEQPVPPAPAG
notes: WspR, P. aeruginosa PAO1, locus tag PA3702; the two central glutamates of the GGEEF motif (residues 251-255) replaced by alanines; Purifies nucleotide-free; source: E. coli BL21(DE3), purified (NiNTA, SEC); also E. coli BL21, in lysate; not shown: His6, C-terminal, kept
With B2 the “stoichiometry N” value [4] was 4 and 2.

B3: WspR^R198A (I-site mutant of P. aeruginosa WspR) (enzyme)
chain: MHNPHESKTDLGAPLDGAVMVLLVDDQAMIGEAVRRSLASEAGIDFHFCSDPQQAVAVANQIKPTVILQDLVMPGVDGLTLLAAYRGNPATRDIPIIVLSTKEEPTVKSAAFAAGANDYLVKLPDAIELVARIRYHSRSYIALQQRDEAYRALRESQQQLLETNLVLQRLMNSDGLTGLSNRRHFDEYLEMEWRRSLAEQSQLSLLMIDVDYFKSYNDTFGHVAGDEALRQVAGAIREGCSRSSDLAARYGGEEFAMVLPGTSPGGARLLAEKVRRTVESLQISHDQPRPGSHLTVSIGVSTLVPGGGGQTFRVLIEMADQALYQAKNNGRNQVGLMEQPVPPAPAG
notes: WspR, P. aeruginosa PAO1, locus tag PA3702, with R198A; Purifies essentially nucleotide-free; source: E. coli BL21(DE3), purified (NiNTA, SEC)
For B3, the “stoichiometry N” value [5] was 2 and 4.

B4: WspR^L170D (stalk mutant of P. aeruginosa WspR) (enzyme)
chain: MHNPHESKTDLGAPLDGAVMVLLVDDQAMIGEAVRRSLASEAGIDFHFCSDPQQAVAVANQIKPTVILQDLVMPGVDGLTLLAAYRGNPATRDIPIIVLSTKEEPTVKSAAFAAGANDYLVKLPDAIELVARIRYHSRSYIALQQRDEAYRALRESQQQLLETNLVLQRDMNSDGLTGLSNRRHFDEYLEMEWRRSLREQSQLSLLMIDVDYFKSYNDTFGHVAGDEALRQVAGAIREGCSRSSDLAARYGGEEFAMVLPGTSPGGARLLAEKVRRTVESLQISHDQPRPGSHLTVSIGVSTLVPGGGGQTFRVLIEMADQALYQAKNNGRNQVGLMEQPVPPAPAG
notes: WspR, P. aeruginosa PAO1, locus tag PA3702, with L170D; source: E. coli, purified
In the case of B4, the “stoichiometry N” value [6] is reported as 2 and 4.

B5: WspR^R242A (I-site mutant of P. aeruginosa WspR) (enzyme)
chain: MHNPHESKTDLGAPLDGAVMVLLVDDQAMIGEAVRRSLASEAGIDFHFCSDPQQAVAVANQIKPTVILQDLVMPGVDGLTLLAAYRGNPATRDIPIIVLSTKEEPTVKSAAFAAGANDYLVKLPDAIELVARIRYHSRSYIALQQRDEAYRALRESQQQLLETNLVLQRLMNSDGLTGLSNRRHFDEYLEMEWRRSLREQSQLSLLMIDVDYFKSYNDTFGHVAGDEALRQVAGAIREGCSASSDLAARYGGEEFAMVLPGTSPGGARLLAEKVRRTVESLQISHDQPRPGSHLTVSIGVSTLVPGGGGQTFRVLIEMADQALYQAKNNGRNQVGLMEQPVPPAPAG
notes: WspR, P. aeruginosa PAO1, locus tag PA3702, with R242A; Purifies essentially nucleotide-free; source: E. coli BL21(DE3), purified (NiNTA, SEC); also E. coli BL21, in lysate; not shown: His6, C-terminal, kept
For B5, the “stoichiometry N” value [7] was 2 and the “stoichiometry N” value [5] was 4.
